Among the data in the Immune Epitope Database (IEDB) are Kd values, retold here.

Experiment [1] deals with HLA-A*02:01. Description: IEDB peptide-MHC binding, purified MHC/competitive/fluorescence; filed as Kd, often an IC50 or EC50 that approximates it; ≥ and ≤ were set here for values at or beyond the usual limits of such assays.
For a further experiment, the target named is HLA-A*02:16. The description is as above.
In experiment [2] the target is HLA-A*03:01. Described as above. As to conditions: source organism: Vibrio vulnificus CMCP6.
The next experiment has as its target HLA-A*23:01. Described as above. To be noted: source organism: Vibrio vulnificus CMCP6.
Experiment [3] concerns the target HLA-A*24:03. The experiment is described as above. To be noted: source organism: Vibrio vulnificus CMCP6.
The target of experiment [4] is HLA-A*26:01. Described as above. As to conditions: source organism: Vibrio vulnificus CMCP6.
For experiment [5], the target named is HLA-B*15:01. The experiment is described as above. As to conditions: source organism: Vibrio vulnificus CMCP6.
The next experiment addresses HLA-B*18:01. The experiment is described as above. As to conditions: source organism: Vibrio vulnificus CMCP6.
For the next experiment, the target named is HLA-B*27:03. Described as above. To be noted: source organism: Vibrio vulnificus CMCP6.
Another experiment has as its target HLA-B*46:01. The description is as above. As to conditions: source organism: Vibrio vulnificus CMCP6.
In a further experiment the target is HLA-B*57:01. The description is as above. As to conditions: source organism: Vibrio vulnificus CMCP6.
Another experiment deals with HLA-A*02:03. Described as above.
Another experiment has as its target HLA-A*02:06. Described as above.
The target of the next experiment is HLA-A*02:11. The description is as above.
In another experiment the target is HLA-A*02:12. Described as above.
The target of another experiment is HLA-A*02:19. The description is as above. As to conditions: source organism: Human immunodeficiency virus 1.
Experiment [6] addresses HLA-A*69:01. The description is as above. To be noted: source organism: Human immunodeficiency virus 1.
Another experiment concerns the target HLA-A*01:01. Put plainly: IEDB peptide-MHC binding, purified MHC/direct/fluorescence; filed as Kd, often an IC50 or EC50 that approximates it; ≥ and ≤ were set here for values at or beyond the usual limits of such assays. To be noted: source organism: Pasteurella multocida.
In experiment [7] the target is HLA-A*02:01. The experiment is described as above. As to conditions: source organism: Pasteurella multocida.
Experiment [8] addresses HLA-A*03:01. The description is as above. As to conditions: source organism: Pasteurella multocida.
The target of another experiment is HLA-A*11:01. Described as above. As to conditions: source organism: Pasteurella multocida.
The target in experiment [9] is HLA-A*24:03. The description is as above. To be noted: source organism: Pasteurella multocida.
For experiment [10], the target named is HLA-A*26:01. The experiment is described as above. As to conditions: source organism: Pasteurella multocida.
For the next experiment, the target named is HLA-A*31:01. The description is as above. As to conditions: source organism: Pasteurella multocida.
Experiment [11] deals with HLA-A*69:01. Described as above. As to conditions: source organism: Pasteurella multocida.
The target of a further experiment is HLA-B*07:02. The description is as above. As to conditions: source organism: Pasteurella multocida.
The target in the next experiment is HLA-B*08:01. The description is as above. To be noted: source organism: Pasteurella multocida.
Experiment [12] has as its target HLA-B*15:01. The description is as above. As to conditions: source organism: Pasteurella multocida.
In another experiment the target is HLA-B*27:05. The description is as above. As to conditions: source organism: Pasteurella multocida.
In another experiment the target is HLA-B*40:01. Described as above. As to conditions: source organism: Pasteurella multocida.
The next experiment concerns the target HLA-B*58:01. Described as above. To be noted: source organism: Pasteurella multocida.
For a further experiment, the target named is HLA-A*02:50. Description: IEDB peptide-MHC binding, purified MHC/competitive/fluorescence; filed as Kd, often an IC50 or EC50 that approximates it; ≥ and ≤ were set here for values at or beyond the usual limits of such assays. To be noted: source organism: Pasteurella multocida subsp. multocida str. Pm70.
Where [13] appears, read: source organism: Vibrio vulnificus CMCP6.
Setting [14] is: source organism: Human immunodeficiency virus 1.
[15] abbreviates: source organism: Pasteurella multocida subsp. multocida str. Pm70.

FGAQMGWPV: the Kd was 4.8 nM with HLA-A*02:01 [1] (setting [13]); 6.2 nM with HLA-A*02:16 (setting [13]); at least 20 µM in the experiment with HLA-A*03:01 [2]; at least 20 µM with HLA-A*23:01; at least 20 µM with HLA-A*24:03 [3]; at least 20 µM with HLA-A*26:01 [4]. Moreover, the Kd in the experiment with HLA-B*15:01 [5], with HLA-B*18:01, with HLA-B*27:03, with HLA-B*46:01 and with HLA-B*57:01 was at least 20 µM in each case.
As to FLGKIWPS, the Kd with HLA-A*02:01 [1] (setting [14]) is 3.25 nM; with HLA-A*02:03 (setting [14]) it was at most 0.1 nM; in the experiment with HLA-A*02:06 (setting [14]), at most 0.1 nM; in the experiment with HLA-A*02:11 (setting [14]) it was at most 0.1 nM; with HLA-A*02:12 (setting [14]), at most 0.1 nM; in the experiment with HLA-A*02:16 (setting [14]), at most 0.1 nM. In addition, the equilibrium dissociation constant (Kd) in the experiment with HLA-A*02:19 is 0.4 nM; with HLA-A*69:01 [6], 2760 nM.
Take HLADQLIHQ: the Kd with HLA-A*02:01 [1] (setting [14]) is 6590 nM; with HLA-A*02:03 (setting [14]), 311 nM; with HLA-A*02:11 (setting [14]), 101 nM; with HLA-A*02:19, at least 20000 nM; with HLA-A*69:01 [6] it was at least 20000 nM.
As for LLKDLMPFV, the Kd is at least 20 µM with HLA-A*01:01; 51 nM with HLA-A*02:01 [7]; at least 20 µM with HLA-A*03:01 [8]; at least 20 µM with HLA-A*11:01; at least 20 µM with HLA-A*24:03 [9]; 13.1 nM with HLA-A*26:01 [10]. Further, the equilibrium dissociation constant (Kd) is 1460 nM with HLA-A*31:01; 162 nM with HLA-A*69:01 [11]; at least 20 µM with HLA-B*07:02; at least 20 µM with HLA-B*08:01; 9.23 µM with HLA-B*15:01 [12]; at least 20 µM with HLA-B*27:05. Besides, the Kd with HLA-B*40:01 is at least 20 µM; in the experiment with HLA-B*58:01, at least 20 µM; with HLA-A*02:03 (setting [15]), at most 0.1 nM; with HLA-A*02:06 (setting [15]), at most 0.1 nM; in the experiment with HLA-A*02:11 (setting [15]) it was at most 0.1 nM; with HLA-A*02:12 (setting [15]), at most 0.1 nM. This sequence had a Kd with HLA-A*02:50 of at most 0.1 nM.
